# Results: the supplement of paper PMC9112550, “Optimization of the antimicrobial peptide Bac7 by deep mutational scanning” (BMC Biology, 2022)
# Tested on: Escherichia coli TOP10
# Test: shrunken log2 fold change of peptide-encoding DNA abundance (4.5 h post-induction vs induction); higher = less antimicrobial activity (less host growth inhibition)
# Details: time post-induction: 4.5 h; library: site-saturation at positions 5, 18, 19, 20
# 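Also: peptides expressed intracellularly from a pBAD plasmid library in pooled LB shake-flask culture, induced with 0.3% L-arabinose, DNA abundance read by NGS, three biological replicates, DESeq2 with apeglm shrinkage.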
row,Sequence,shrunken log2 fold change
1,RRIRLRPPRLPRPRPRPQHVPRP,-0.316
2,RRIRMRPPRLPRPRPRPVVNPRP,0.0747
3,RRIRMRPPRLPRPRPRPFFMPRP,-0.121
4,RRIRLRPPRLPRPRPRPSCTPRP,-0.501
5,RRIRRRPPRLPRPRPRPDGPPRP,0.215
6,RRIRMRPPRLPRPRPRPIGTPRP,0.403
7,RRIRMRPPRLPRPRPRPCRTPRP,-0.129
8,RRIRGRPPRLPRPRPRPEAHPRP,0.079
9,RRIRTRPPRLPRPRPRPGTTPRP,-0.342
10,RRIRLRPPRLPRPRPRPKTMPRP,0.0334
11,RRIRIRPPRLPRPRPRPNVYPRP,-0.228
12,RRIRNRPPRLPRPRPRPFFFPRP,0.0988
13,RRIRERPPRLPRPRPRPFADPRP,-0.192
14,RRIRWRPPRLPRPRPRPCQEPRP,-0.15
15,RRIRERPPRLPRPRPRPVHIPRP,-0.202
16,RRIRMRPPRLPRPRPRPHHEPRP,-0.00212
17,RRIRHRPPRLPRPRPRPQTMPRP,3.11
18,RRIRERPPRLPRPRPRPCIIPRP,-0.449
19,RRIRHRPPRLPRPRPRPYKMPRP,-0.226
20,RRIRCRPPRLPRPRPRPGPAPRP,0.543
21,RRIRSRPPRLPRPRPRPPGSPRP,0.134
22,RRIRFRPPRLPRPRPRPPARPRP,0.694
23,RRIRVRPPRLPRPRPRPVQLPRP,0.258

row,Sequence,shrunken log2 fold change
1,RRIRERPPRLPRPRPRPCQDPRP,-0.534
2,RRIRFRPPRLPRPRPRPQMQPRP,0.203
3,RRIRARPPRLPRPRPRPWGMPRP,-0.00469
4,RRIRHRPPRLPRPRPRPSYGPRP,-0.34
5,RRIRTRPPRLPRPRPRPSQLPRP,-0.453
6,RRIRNRPPRLPRPRPRPSCEPRP,-0.229
7,RRIRGRPPRLPRPRPRPAIEPRP,0.942
8,RRIRCRPPRLPRPRPRPMASPRP,-0.00968
9,RRIRFRPPRLPRPRPRPYPCPRP,-0.0436
10,RRIRYRPPRLPRPRPRPTIIPRP,-0.669
11,RRIRFRPPRLPRPRPRPPGWPRP,0.448
12,RRIRLRPPRLPRPRPRPMFNPRP,-0.524
13,RRIRSRPPRLPRPRPRPPVSPRP,0.308
14,RRIRWRPPRLPRPRPRPYEWPRP,0.0229
15,RRIRTRPPRLPRPRPRPQAIPRP,0.209
16,RRIRLRPPRLPRPRPRPCIKPRP,-0.752
17,RRIRWRPPRLPRPRPRPRPNPRP,0.273
18,RRIRDRPPRLPRPRPRPVCFPRP,0.599
19,RRIRFRPPRLPRPRPRPKDSPRP,-0.335
20,RRIRKRPPRLPRPRPRPINIPRP,-0.0728
21,RRIRPRPPRLPRPRPRPWRGPRP,0.344
22,RRIRHRPPRLPRPRPRPAIQPRP,0.0477
23,RRIRRRPPRLPRPRPRPRIVPRP,0.00997

row,Sequence,shrunken log2 fold change
1,RRIRKRPPRLPRPRPRPTRLPRP,0.537
2,RRIRGRPPRLPRPRPRPRSWPRP,1.19
3,RRIRKRPPRLPRPRPRPAWGPRP,0.694
4,RRIRSRPPRLPRPRPRPEVQPRP,-0.0242
5,RRIRHRPPRLPRPRPRPHIWPRP,-0.835
6,RRIRERPPRLPRPRPRPLKRPRP,-0.28
7,RRIRWRPPRLPRPRPRPFNAPRP,-0.342
8,RRIRQRPPRLPRPRPRPQDFPRP,-0.372
9,RRIRFRPPRLPRPRPRPAQVPRP,-0.0516
10,RRIRVRPPRLPRPRPRPAMYPRP,3.58
11,RRIRMRPPRLPRPRPRPGRIPRP,0.0372
12,RRIRYRPPRLPRPRPRPTRDPRP,-0.0311
13,RRIRIRPPRLPRPRPRPVVLPRP,-0.21
14,RRIRKRPPRLPRPRPRPCNEPRP,-0.00256
15,RRIRFRPPRLPRPRPRPGDSPRP,-0.305
16,RRIRLRPPRLPRPRPRPDEFPRP,0.0159
17,RRIRARPPRLPRPRPRPQRLPRP,0.247
18,RRIRKRPPRLPRPRPRPCEKPRP,0.492
19,RRIRYRPPRLPRPRPRPNDHPRP,-1.23
20,RRIRPRPPRLPRPRPRPNKMPRP,-0.17
21,RRIRTRPPRLPRPRPRPLRMPRP,-0.0962
22,RRIRQRPPRLPRPRPRPCYQPRP,-0.0254
23,RRIRYRPPRLPRPRPRPNRRPRP,-0.023

row,Sequence,shrunken log2 fold change
1,RRIRCRPPRLPRPRPRPSCNPRP,0.329
2,RRIRQRPPRLPRPRPRPEPKPRP,0.244
3,RRIRNRPPRLPRPRPRPSVIPRP,-0.781
4,RRIRCRPPRLPRPRPRPIIYPRP,-0.739
5,RRIRRRPPRLPRPRPRPSYHPRP,-0.368
6,RRIRNRPPRLPRPRPRPLFDPRP,-0.298
7,RRIRGRPPRLPRPRPRPDRDPRP,0.326
8,RRIRWRPPRLPRPRPRPYLTPRP,-0.089
9,RRIRWRPPRLPRPRPRPRHHPRP,-0.0574
10,RRIRFRPPRLPRPRPRPVTLPRP,0.347
11,RRIRVRPPRLPRPRPRPHEDPRP,0.0277
12,RRIRIRPPRLPRPRPRPSLPPRP,-0.491
13,RRIRERPPRLPRPRPRPQAEPRP,-0.0297
14,RRIRFRPPRLPRPRPRPVSEPRP,0.114
15,RRIRCRPPRLPRPRPRPMHEPRP,-0.00208
16,RRIRFRPPRLPRPRPRPWGVPRP,-0.517
17,RRIRIRPPRLPRPRPRPWKEPRP,-0.12
18,RRIRSRPPRLPRPRPRPIRWPRP,0.0723
19,RRIRARPPRLPRPRPRPKFIPRP,-0.135
20,RRIRKRPPRLPRPRPRPHHRPRP,-0.0531
21,RRIRYRPPRLPRPRPRPGGRPRP,-0.019
22,RRIRTRPPRLPRPRPRPCVVPRP,-0.0223
